According to patent US20100081624:

How the values were obtained:
[1] = system: T1, LxVPc1 peptide (synthetic peptide with the LxVP sequence of NFATc1)
T1 sequence: DQYLAVPQHPYQWAK

[2] = system: mutLxVPc1 peptide (LxVP motif from NFATc1 with the Leucine, Valine and Proline residues replaced by Alanine)

Calcineurin of the Biomol Green Calcineurin assay kit
phosphatase activity of CN on the RII phosphopeptide substrate [1]: severely blocked in vitro the phosphatase activity of CN on its physiological substrate
phosphatase activity of CN on the RII phosphopeptide substrate [2]: (but not its mutant version)
